pKd: −log10 of the molar value.
Target: Recombinant SARS-CoV-1 spike protein 2P (residues 12-1193) (SARS-CoV-1) (UniProt P59594)
Assay: SPR

ACE2 monomer (human extracellular ACE2 domain, residues 18-615, cut from ACE2-TEV-Fc) (from UniProt Q9BYF1 18-615) (domain or fragment)
pKd: 7.15
koff: 0.0016 s⁻¹
kon: 170000 M⁻¹ s⁻¹

Source: paper PMC12501226
